Data set [1] has as its target T1, K18 Tau (Homo sapiens, UniProt P10636).
T1 construct: K18 Tau was first expressed, collected, and purified; His tag (cleaved yes); made in house
Kind of data set: Tau Kinetics Thioflavin T plate reader assay. The data set is classed as biochemical. As to conditions: 1 μM PLP/Pep. The procedure: (§1) Tau Kinetics Thioflavin T Plate Reader Assay Protocol: First, controls and the effects of varying concentrations of K18 Tau were examined (FIG. 24). In FIG. 24, 1X Tau refers to 10 μM K18 Tau final concentration in the well with 100 μl total volume (i.e., 0.5× Tau refers to 5 μM K18 Tau and 2× Tau refers to 20 μM K18 Tau). Before PLPs were added to K18 Tau, the concentration at which the mimetic aggregative polymers would not activate Thioflavin T was evaluated. Based on the results depicted in FIG. 25, a PLP concentration of 1 μM was selected for further experimentations. […] Given the goal to investigate effects of the PLPs, it was determined that too high of a concentration could easily be adjusted, whereas too low of a concentration could result in a false negative with respect to impact.
PLPs incorporating SEQ ID: 4 (“TP4”), SEQ ID: 2 (“TP7”), or SEQ ID: 10 (“TP12”) as peptide sidechains were tested. The PLPs, K18 Tau (10 μM) and Thio T (Sigma) at a final concentration of 10 μM was added, and aggregation was induced by the addition of a freshly prepared heparin sodium salt solution (Santa Cruz) at a final concentration of 44 μg/ml. For non-induced controls, assay buffer was added in place of heparin solution to a final volume of 100 μl per well. Aggregation reactions were carried out at 37° C. with continuous shaking and monitored via ThT fluorescence (excitation, 444 nm; emission, 485 nm; cutoff, 480 nm) in a Spectramax M5 microplate reader (Molecular Devices). Readings were taken every 5 min for a minimum of 24 h.
Table C. Summary of results depicted in FIGS. 26, 28, and 29 in the event the graphical representations are difficult to ascertain. Values are rounded to the nearest whole number. Tau 10 hr refers to the average amplitude (fluorescent intensity readout) of an n=6 of the control Tau (meaning no peptide or polymer added, just heparin, thioflavin T, and PBS) trace at 10 hour. The same applies to Tau 15 hr and Tau 20 hr. Avg Tau amplitude refers to the average of the amplitudes at 10, 15, and 20 hr in the previous columns. As Tau is the control for each individual plate, and these readings were done on three separate plates, there are 3 different sets of average amplitudes. Similar to the aforementioned, PLP or Pep 10 hr refers to the average amplitude (n=6 for PLP and n=3 for peptide) of the Tau trace treated with that compound at 10 hours. Avg P amplitude refers to the average of the amplitude at the 3 times, or the average of the 3 previous columns. PLP or Pep/Tau % is the result of dividing the Avg P amplitude by Avg Tau amplitude and multiplying by 100. % amp change refers to the change in amplitude given by subtracting Tau average amplitude from P average amplitude and dividing by Tau average amplitude and multiplying by 100.

Data set [2] can be described thus: Concentration dependence of polymer activation of Thioflavin T (no Tau). Conditions: 1 μM PLP, no Tau (FIG. 25).
Text: FIG. 25: Concentration dependence of polymer activation of Thioflavin T. TP4: PLP homopolymer incorporating SEQ ID: 4 as peptide sidechains. TP7: PLP homopolymer incorporating SEQ ID: 2 as peptide sidechains. TP4 and TP7 controls: PLP homopolymer, thioflavin T, no heparin, and PBS. The remainder of controls were at baseline and were removed from this FIG. 25 to improve readability. ThioT control: no Tau, no heparin, thioflavin T and PBS. ThioT heparin control: no Tau, no PLPs, thioflavin T, heparin, and PBS. n=3.
as §1

Data set [3] relates to Mouse striatal cells HdhQ7/7. Kind of data set: Cell permeability assay with rhodamine labeled PLPs (confocal imaging). The data set is classed as cell-based. As to conditions: incubated with the cells for 24 hours. The procedure: Mouse striatal cells HdhQ7/7 from Coriell Institute were plated in 4-chamber 35 mm round glass-bottom dishes at a density of 50,000 per well. Cells were incubated for 24 hours in a 5% CO2 atmosphere at 33° C. Rhodamine labeled PLPs, rhodamine dye, and vehicle control in 10% FBS DMEM medium without phenol red were incubated with the cells for 24 hours, respectively. The cell nuclei (stained with Hoechst) were accomplished using a 405 nm laser with a 15% laser power. The cell membrane (stained with Wheat Germ Agglutinin, Alexa Fluor 488 Conjugate) was accomplished using a 488 nm laser with a 12% laser power. Cell imaging for Rhodamine fluorescence was accomplished using a 581 nm laser with an 8% laser power.

Data set [4] can be described thus: Liquid-liquid phase separation (LLPS) of rhodamine labeled PLPs. The class given is physicochemical. Conditions: HEPES buffer with heparin, room temperature. The procedure:
Solutions were dissolved in HEPES buffer: 10 mM HEPES buffer (pH 7.4) with 0.1 mM EDTA and 2 mM DTT, Media buffer: Dulbecco Modified Eagles Medium (high glucose) with 2 mM L-glutamine with 10% Fetal Bovine Serum, 1% Penicillin/Streptomycin, or water. Different crowding agents were also tested using HEPES buffer—PEG and heparin. For heparin, stock solutions of 10 μM of each rhodamine labeled PLP (using either SEQ ID: 4 or SEQ ID: 7 as peptide monomers) and 30 μM of heparin sodium salt were prepared in buffer and kept refrigerated. Before experiments, solutions were given at least 30 min to come to room temperature and experiments were carried out at room temperature. In the microscope room, 20 μL of PLP was added to 5 μL of heparin and mixed gently in a microcentrifuge tube. 5 μL of solution was immediately pipetted onto Fisherbrand glass microscope slides and coverslip applied. All reactions were visualized on Olympus BX53 Fluorescent Microscope using the 581 nm laser to monitor the rhodamine, as well as brightfield. LLPS occurred within 60 min of initiation.

The nature of data set [5]: Circular dichroism. The class given is physicochemical. Conditions: 37° C., Tris buffer pH 7.4. On the procedure:
The proteomimetic similarities were further investigated using circular dichroism. Samples tested included K18 Tau, PLPs having SEQ ID: 4, SEQ ID: 2, and SEQ ID: 10, as well as said PLPs with K18 Tau. Each of these samples were dissolved in Tris buffer (10 mM Tris, 50 mM NaF, 0.5 mM dithiothreitol) and pH was adjusted to 7.4. Samples were tested with and without the addition of heparin. For samples containing heparin, samples were incubated in the presence of 10 μM heparin sodium salt for 24 hours. Polymers and peptides were run at 37° C., at a concentration of 3 mg/10 ml and K18 Tau was run at 10 uM. Parameters were: 1 mm quartz cuvette, continuous scan at 10 nm/min over 260 to 200 nm, 3 acquisitions averaged for one trace.
Background: Circular dichroism is widely used to follow secondary structure.

Data set [6] is described as follows: STEM / dry state TEM of PLP homopolymers. As to conditions: prepared in H2O. The data set is classed as physicochemical. On the procedure: Using standard STEM protocols, PLPs having SEQ ID: 2 or SEQ ID: 4 as peptide monomers were prepared in H2O and visualized. […] Further, from the results depicted in FIG. 17, the homopolymer the beta sheet forming nature was confirmed. After putting the PLPs in HEPES LLPS buffer and heating to 37° C. (i.e., body temperature), a time course established the fibrilization of the polymer on dry state TEM. The same fibrilization was seen on purified K18 Tau protein 24 hours after incubation with heparin in PBS as depicted in FIG. 19. The remarkably similar characteristics was a testament to the mimetic capabilities of the PLP.

Consider one substance from patent US20250360220A1, “REGULATION OF TAU USING PROTEIN-LIKE POLYMERS AND USES THEREOF” (NORTHWESTERN UNIVERSITY, priority 2022, published 2025).

T1 sequence (P10636 561-685 limits assumed): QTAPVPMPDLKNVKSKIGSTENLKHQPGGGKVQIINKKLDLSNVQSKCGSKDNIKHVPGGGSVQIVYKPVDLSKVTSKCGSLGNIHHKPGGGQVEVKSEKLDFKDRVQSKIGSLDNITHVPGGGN

For “TP7: PLP generated from peptide monomers characterized by SEQ ID: 2 (DRVQIVYKRR)”, in data set [1] (Avg P amplitude divided by Avg Tau amplitude x 100), the “PLP or Pep/Tau %” value came to 110%. Besides, the “PLP or Pep 10 hr (average amplitude, fluorescent intensity readout, of the Tau trace treated with that compound)” value in data set [1] (K18 Tau 10 μM, heparin, thioflavin T, PBS, 10 hr) was found to be 633. For the same substance, the “PLP or Pep 15 hr (average amplitude)” value in data set [1] (K18 Tau 10 μM, heparin, thioflavin T, PBS, 15 hr) stood at 715. For the same substance, the “PLP or Pep 20 hr (average amplitude)” value in data set [1] (K18 Tau 10 μM, heparin, thioflavin T, PBS, 20 hr) is reported as 672. Further, in data set [1] (average of the amplitudes at 10, 15 and 20 hr), the “Avg P Amplitude” value is 673. In data set [1] (change in amplitude relative to control Tau), the “% amp change” value was determined as 11%. Besides, in data set [2], the “Thioflavin T signal of the polymer” value was “negligible signal”. In addition, the “Capability to permeate the striatal cells” value in data set [3] is “demonstrated the capability to permeate the striatal cells”. Further, the Liquid-liquid phase separation result in data set [4] was “capable of liquid-liquid phase separation”. The “CD conformation of PLPs” value in data set [5] (after addition of heparin) is given as “beta sheet formation”; in data set [5] (before heparin was added) it was “random coil formations”. Also, in data set [6], the “Conformation by STEM” value is “beta sheet conformations”.
